One molecule from article PMC11742450, “Engineering a membrane protein chaperone to ameliorate the proteotoxicity of mutant huntingtin” (Nature Communications, 2025) can be followed below.

The target in the experiment is T1, His6-hsPEX19-WT (human, UniProt P40855 1-299).
T1 construct: human PEX19 (hsPEX19); the human PEX19 gene cloned into pET-33b; Made in E. coli, so probably not farnesylated (surmise); also called human PEX19; His6-PEX19; source: E. coli BL21 Star (DE3), purified (Ni-NTA)
T1 sequence (looked up): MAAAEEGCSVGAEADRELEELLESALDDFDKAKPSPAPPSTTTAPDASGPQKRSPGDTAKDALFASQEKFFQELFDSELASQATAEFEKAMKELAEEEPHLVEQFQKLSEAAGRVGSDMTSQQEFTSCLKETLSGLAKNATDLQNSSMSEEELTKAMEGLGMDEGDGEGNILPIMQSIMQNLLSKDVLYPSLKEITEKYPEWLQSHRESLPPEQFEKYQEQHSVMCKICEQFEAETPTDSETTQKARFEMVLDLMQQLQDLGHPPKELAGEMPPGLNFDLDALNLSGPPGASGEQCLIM
In words: pull-down; His6-PEX19 pulldown with PEX26; input, flowthrough and elution analysed by Western blot with Strep (PEX26) and PEX19 antibodies; hsPEX19 at about 3-fold the endogenous concentration. The settings on record: both partners purified. On the technique in general: Immunoblotting shows a protein as a band on a membrane.

B1: 2 × Strep-SUMO-PEX26 (237-305aa) (domain or fragment, UniProt Q7Z412 237-305, looked up)
chain: RQLWDSAVSHFFSLPFKKSLLAALILCLLVVRFDPASPSSLHFLYKLAQLFRWIRKAAFSRLYQLRIRD
As for B1, the binding result is on record as “binds”.
